Reference: patent US20260250379A1 (HANGZHOU SUMGEN BIOTECH, published 2026)
Substitutions are numbered along the chain they refer to.

B1: chimeric antibody 5E11-2 (antibody, V domains shown)
VH: EVKLEESGGGLVQPGGSMKLSCAASGFTFSDAWMDWVRQSPEKGLEWVAEIRSKPNNHATYYAESVKGRFTISRDDSKSSVYLQMNSLRAEDTGIYYCTRTTDYSMDYWGQGTSVTVSS
VL: DIQMTQSPASLAVSLGQRATISCRASQSVSASSYSYMHWYQQKPGQPPKLLIKYASNLQSGVPARFSGSGSGTDFTLNIHPVEEEDSATYYCQHSWEIPRTFGGGTKLEIK
notes: Full chains are not tied by name
B2: chimeric antibody 1A2-7 (antibody, V domains shown)
VH: QVQLQQPGAELVKPGASVKLSCKASGYTFTSYWMHWVKQRPGQGLEWIGEINPSNGRTNYNEKFKSKATLTVDKSSSTAYMQLNSLTSEDSAVYYCARDRYDEGNAMDYWGQGTSVTVSS
VL: DIVMTQTTSSLSASLGDRVTISCRASQDITNYLNWYQQKPDGTVKLLIYYTSRLHSGVPSRFSGSGSGTDYSLTISNLEQEDIATYFCQQGDTLPRTFGGGTKLEIK
B3: chimeric antibody 3G9-1 (antibody, V domains shown)
VH: QVQLQQPGAELVKPGASVKLSCKASGYTFTSYWMHWVKQRPGQGLEWIGEINPSNGRTNYNEKFKSKATLIVDKSSSTAYMQLSSLTSEDSAVYYCARGIYYGYDYAMDYWGQGTSVTVSS
VL: B2 VL with V3Q, Q6H, T30S, D92N, R96P
notes: as for B1
B4: chimeric antibody 3A2-18 (antibody, V domains shown)
VH: B2 VH with Q1E, M81V
VL: B2 VL
notes: as for B1
B5: humanized antibody RB4-G1-018 (antibody, human IgG1, kappa, V domains shown)
VH: QVQLVQSGAEVKKPGASVKVSCKASGYTFTSYWMHWVRQAPGQGLEWIGEINPSNGRTNYNEKFKSRATLTVDKSTSTAYMELSSLRSEDTAVYYCARDRYDEGNAMDYWGQGTTVTVSS
VL: DIQMTQSPSSLSASVGDRVTITCRASQDITNYLNWYQQKPGKAPKLLIYYTSRLHSGVPSRFSGSGSGTEYTLTISSLQPDDFATYYCQQGDTLPRTFGQGTRLEIKR
B6: humanized antibody RB4-G1-020 (antibody, human IgG1, kappa, V domains shown)
VH: B5 VH with I48M, A68V, L70M, V72R, K74T, A79V
VL: B5 VL
B7: humanized antibody RB4-G1-022 (antibody, human IgG1, kappa, V domains shown)
VH: B5 VH
VL: B5 VL with E70D, L73F, D81E, F83I
B8: humanized antibody RB4-G1-019 (antibody, human IgG1, kappa, V domains shown)
VH: B5 VH with I48M, A68V, A79V
VL: B5 VL

molecular target: T1, Human LILRB4/CD85k/ILT3 Protein (ECD, His Tag), Sino Biological (human, UniProt Q8NHJ6 22-259); experiment: ELISA, human LILRB4 ECD-His coated, HRP goat anti-human IgG Fc, OD450
T1 construct: extracellular domain; It is not tied to this bought protein; also called LILRB4 protein; not shown: His tag

Row | Binder | EC50 (read off the curve)
1 | B1 | ~50 ng/mL
2 | B2 | ~30 ng/mL
3 | B3 | ~20 ng/mL
4 | B4 | ~30 ng/mL

molecular target: T2, Human LILRB5/CD85c/LIR-8 Protein (ECD, His Tag), Sino Biological (human, UniProt O75023 24-458); experiment: ELISA, LILRB family proteins (His tag) coated, antibody at 10 ug/mL, HRP goat anti-human IgG Fc, OD450
T2 construct: extracellular domain; not shown: His tag
T2 sequence (O75023 24-458): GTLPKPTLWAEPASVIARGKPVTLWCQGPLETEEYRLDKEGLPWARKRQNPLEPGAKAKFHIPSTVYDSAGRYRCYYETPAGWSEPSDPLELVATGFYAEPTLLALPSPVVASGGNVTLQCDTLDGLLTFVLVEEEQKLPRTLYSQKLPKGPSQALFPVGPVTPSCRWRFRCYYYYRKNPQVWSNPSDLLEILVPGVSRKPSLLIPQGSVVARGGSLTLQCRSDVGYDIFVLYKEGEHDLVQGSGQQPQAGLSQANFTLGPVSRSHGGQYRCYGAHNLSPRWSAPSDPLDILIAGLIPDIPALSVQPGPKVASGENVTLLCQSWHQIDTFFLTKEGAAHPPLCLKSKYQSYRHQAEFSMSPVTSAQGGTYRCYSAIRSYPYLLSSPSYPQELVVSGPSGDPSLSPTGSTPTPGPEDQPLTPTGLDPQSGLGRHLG

Row | Binder | binding result
5 | B1 | no binding (tested: 10 ug/mL)
6 | B2 | no binding (tested: 10 ug/mL)
7 | B3 | no binding (tested: 10 ug/mL)
8 | B4 | no binding (tested: 10 ug/mL)

molecular target: T3, Human LILRB2/ILT4/LIR-2 Protein (ECD, His Tag), Sino Biological (human, UniProt Q8N423 22-460); experiment: as above
T3 construct: extracellular domain; not shown: His tag
T3 sequence (Q8N423 22-460): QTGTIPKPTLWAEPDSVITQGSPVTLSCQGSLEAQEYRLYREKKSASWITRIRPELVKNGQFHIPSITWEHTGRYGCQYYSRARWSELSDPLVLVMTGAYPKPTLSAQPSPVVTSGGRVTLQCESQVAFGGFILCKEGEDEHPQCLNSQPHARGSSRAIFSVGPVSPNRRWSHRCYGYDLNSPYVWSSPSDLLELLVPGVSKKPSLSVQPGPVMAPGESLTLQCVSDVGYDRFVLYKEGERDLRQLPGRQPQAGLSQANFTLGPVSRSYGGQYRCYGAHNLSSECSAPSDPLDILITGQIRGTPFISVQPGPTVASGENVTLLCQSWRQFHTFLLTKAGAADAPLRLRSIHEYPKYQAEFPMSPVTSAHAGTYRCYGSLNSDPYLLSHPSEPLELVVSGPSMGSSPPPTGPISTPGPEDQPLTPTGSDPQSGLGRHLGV

Row | Binder | binding result
9 | B1 | no binding (tested: 10 ug/mL)
10 | B2 | no binding (tested: 10 ug/mL)
11 | B3 | no binding (tested: 10 ug/mL)
12 | B4 | no binding (tested: 10 ug/mL)

molecular target: T4, Human LILRB1/CD85/ILT2/ILR1 Protein (ECD, His Tag), Sino Biological (human, UniProt Q8NHL6 24-461); experiment: as above
T4 construct: extracellular domain; not shown: His tag
T4 sequence (Q8NHL6 24-461): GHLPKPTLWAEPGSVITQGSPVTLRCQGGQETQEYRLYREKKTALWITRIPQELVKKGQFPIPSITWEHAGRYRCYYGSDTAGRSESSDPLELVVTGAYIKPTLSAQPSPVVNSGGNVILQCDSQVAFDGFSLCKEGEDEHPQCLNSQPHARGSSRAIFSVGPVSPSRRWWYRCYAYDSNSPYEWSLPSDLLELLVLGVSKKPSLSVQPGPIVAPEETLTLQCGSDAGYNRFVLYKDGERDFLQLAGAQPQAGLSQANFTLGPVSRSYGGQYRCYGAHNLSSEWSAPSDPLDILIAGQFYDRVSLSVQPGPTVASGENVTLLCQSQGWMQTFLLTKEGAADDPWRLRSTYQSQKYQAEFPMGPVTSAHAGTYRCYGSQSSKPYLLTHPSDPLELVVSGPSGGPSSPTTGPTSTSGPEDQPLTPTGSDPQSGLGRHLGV

Row | Binder | binding result
13 | B1 | no binding (tested: 10 ug/mL)
14 | B2 | no binding (tested: 10 ug/mL)
15 | B3 | no binding (tested: 10 ug/mL)
16 | B4 | no binding (tested: 10 ug/mL)

molecular target: T5, Human LILRB3/LIR3/ILT5/CD85a Protein (ECD, His Tag), Sino Biological (human, UniProt O75022 24-443); experiment: as above
T5 construct: extracellular domain; not shown: His tag
T5 sequence (O75022 24-443): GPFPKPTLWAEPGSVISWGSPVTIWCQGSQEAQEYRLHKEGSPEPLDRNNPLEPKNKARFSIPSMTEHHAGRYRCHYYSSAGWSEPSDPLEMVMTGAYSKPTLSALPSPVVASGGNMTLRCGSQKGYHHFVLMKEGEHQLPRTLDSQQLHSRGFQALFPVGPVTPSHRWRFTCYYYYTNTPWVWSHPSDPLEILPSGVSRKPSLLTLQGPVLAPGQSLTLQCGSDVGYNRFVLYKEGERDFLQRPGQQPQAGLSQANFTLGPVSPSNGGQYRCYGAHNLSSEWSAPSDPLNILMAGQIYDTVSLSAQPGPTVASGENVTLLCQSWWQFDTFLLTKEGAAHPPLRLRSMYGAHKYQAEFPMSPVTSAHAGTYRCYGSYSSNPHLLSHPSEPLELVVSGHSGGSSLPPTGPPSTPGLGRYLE

Row | Binder | binding result
17 | B1 | no binding (tested: 10 ug/mL)
18 | B2 | no binding (tested: 10 ug/mL)
19 | B3 | no binding (tested: 10 ug/mL)
20 | B4 | no binding (tested: 10 ug/mL)

molecular target: T6, LILRB4 on LILRB4 effector reporter cells (jurkat-LILRB4) (UniProt Q8NHJ6 22-448); experiment: cell-based or functional assay

Row | Binder | EC50 (read off the curve); luciferase RLU, blocking of APOE
21 | B4 | ~10 ng/mL

molecular target: T7, LILRB4 on human mononuclear leukemia cells THP-1 (human, UniProt Q8NHJ6 22-448); experiment: flow cytometry on THP-1 cells, PE goat anti-human IgG Fc, MFI
T7 construct: whole, on cells; The protein is endogenous to the cells; also called LILRB4 positive cells THP-1

Row | Binder | EC50 (read off the curve)
22 | B5 | ~30 ng/mL
23 | B6 | ~30 ng/mL
24 | B7 | ~40 ng/mL
25 | B8 | ~30 ng/mL

molecular target: human LILRB4 on 293T-hLILRB4 cells (human, UniProt Q8NHJ6 22-448); experiment: cell-based or functional assay

Row | Binder | EC50 (read off the curve); ADCC reporter induction multiple
26 | B5 | ~60 ng/mL
27 | B6 | ~60 ng/mL
28 | B7 | ~50 ng/mL
29 | B8 | ~60 ng/mL

molecular target: T6, LILRB4 on LILRB4 effector reporter …; experiment: cell-based or functional assay; remark: another data set of the same source

Row | Binder | EC50 (read off the curve); luciferase RLU, blocking of APOE
30 | B2 | ~0.03 ng/mL

molecular target: T6, LILRB4 on LILRB4 effector reporter …; experiment: cell-based or functional assay; remark: another data set of the same source

Row | Binder | EC50 (read off the curve); luciferase RLU, blocking of APOE
31 | B5 | ~10 ng/mL
32 | B6 | ~20 ng/mL
33 | B7 | ~20 ng/mL
34 | B8 | ~10 ng/mL

molecular target: T1, Human LILRB4/CD85k/ILT3 Protein (ECD, …); experiment: ELISA, human LILRB4 ECD-His coated, HRP goat anti-human IgG Fc, OD450; remark: another data set of the same source

Row | Binder | EC50 (read off the curve)
35 | B5 | ~30 ng/mL
36 | B6 | ~30 ng/mL
37 | B7 | ~30 ng/mL
38 | B8 | ~30 ng/mL

molecular target: T8, LILRB4 (Beijing ACROBiosystems, article number LI4-H52H7, 6xHis label) (human, UniProt Q8NHJ6 22-259); experiment: SPR, BIACORE 8K; antibody captured on Protein A chip, LILRB4-6xHis as analyte
T8 construct: Analyte (mobile phase) in the BIACORE 8K assay; also called Human LILRB4; not shown: 6xHis label
Description: A BIACORE 8K biomacromolecule interactor (GE Company) was adopted to analyze the affinity of an antibody. A Series S Sensor Chip Protein A Chip (GE Company) was used for capturing an antibody to be detected, the concentration of the antibody to be detected was set to be 15 μg/mL, and the sample was fed at a speed of 10 μl/min until RU=500; LILRB4 (Beijing ACROBiosystems, article number: LI4-H52H7, 6×His label, and the theoretical molecular weight: 28.2 Kda) was used as a mobile phase, 6 concentration gradients (0.0977 nM-200 nM) were used, and the binding time was 180 sec; and the dissociation time was 300 sec. The result of the affinity of the antibody to be detected is as set forth in follows: […]

Row | Binder | Kd | koff | kon
39 | B5 | 2.81 nM | 0.00433 s⁻¹ | 1.54e+06 M⁻¹ s⁻¹
40 | B6 | 3.29 nM | 0.00834 s⁻¹ | 2.53e+06 M⁻¹ s⁻¹
41 | B7 | 2.33 nM | 0.00418 s⁻¹ | 1.8e+06 M⁻¹ s⁻¹
42 | B8 | 2.77 nM | 0.00343 s⁻¹ | 1.24e+06 M⁻¹ s⁻¹
